Data: PMC7911427, “Interactions of Bacillus subtilis Basement Spore Coat Layer Proteins” (Microorganisms, 2021)

B1: CotE, adenylate cyclase T18/T25 hybrid (natural protein, Bacillus subtilis, UniProt P14016 1-181, looked up)
chain: MSEYREIITKAVVAKGRKFTQCTNTISPEKKPSSILGGWIINHKYDAEKIGKTVEIEGYYDINVWYSYADNTKTEVVTERVKYVDVIKLRYRDNNYLDDEHEVIAKVLQQPNCLEVTISPNGNKIVVQAEREFLAEVVGETKVVVEVNPDWEEDDEEDWEDELDEELEDINPEFLVGDPEE
notes: CotE, spore coat morphogenetic protein of Bacillus subtilis; gene amplified from genomic DNA; also called CotE-T25; T25-CotE; source: bacterial two-hybrid fusion, E. coli BTH101; not shown: T18 or T25 domain of adenylate cyclase, N-terminal or C-terminal (by the plasmid combination), kept

Experiments:
Experiment in all cases: two-hybrid; bacterial two hybrid system (BACTH) based on adenylate cyclase T18/T25 fusions in E. coli BTH101; X-gal/IPTG indicator plates at 30 °C for 48 h; beta-galactosidase activity with ONPG in Miller units (Mu)
[1] = biological target: the molecule itself
[2] = biological target: B1; settings: partners not purified
[3] = biological target: T1, SpoIVA, adenylate cyclase T18/T25 hybrid (Bacillus subtilis, UniProt P35149 1-492); settings: partners not purified
T1 construct: SpoIVA, basement layer coat morphogenetic protein (ATPase) of Bacillus subtilis; gene amplified from genomic DNA; also called T25-SpoIVA; T18-SpoIVA; source: bacterial two-hybrid fusion, E. coli BTH101; not shown: T18 or T25 domain of adenylate cyclase, N-terminal or C-terminal (by the plasmid combination), kept
T1 sequence (looked up): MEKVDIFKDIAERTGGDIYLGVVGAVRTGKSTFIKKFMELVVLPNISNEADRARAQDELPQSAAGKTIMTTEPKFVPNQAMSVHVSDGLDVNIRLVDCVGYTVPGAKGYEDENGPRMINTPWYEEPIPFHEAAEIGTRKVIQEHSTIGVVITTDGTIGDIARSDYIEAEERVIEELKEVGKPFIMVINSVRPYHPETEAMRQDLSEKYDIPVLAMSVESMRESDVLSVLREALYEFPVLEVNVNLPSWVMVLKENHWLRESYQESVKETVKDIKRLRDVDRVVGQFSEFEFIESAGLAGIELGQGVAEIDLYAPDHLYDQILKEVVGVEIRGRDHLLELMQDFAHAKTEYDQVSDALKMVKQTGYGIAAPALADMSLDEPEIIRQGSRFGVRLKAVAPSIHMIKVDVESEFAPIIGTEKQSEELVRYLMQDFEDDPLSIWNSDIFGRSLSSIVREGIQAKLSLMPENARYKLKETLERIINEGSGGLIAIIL

[4] = biological target: T2, SpoVM, adenylate cyclase T18/T25 hybrid (Bacillus subtilis, UniProt P37817 1-26); settings: partners not purified
T2 construct: SpoVM, small 26-amino-acid-long basement layer coat morphogenetic peptide of Bacillus subtilis; gene amplified from genomic DNA; also called T18–SpoVM; SpoVM–T18; source: bacterial two-hybrid fusion, E. coli BTH101; not shown: T18 or T25 domain of adenylate cyclase, N-terminal or C-terminal (by the plasmid combination), kept
T2 sequence (P37817 whole entry, the tested form may be a part): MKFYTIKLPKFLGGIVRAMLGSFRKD

Binder	beta-galactosidase activity (Miller units) [1] [Mu]	other results
YheD, adenylate cyclase T18/T25 hybrid (natural protein, Bacillus subtilis, UniProt O07545 1-453, looked up, YheD, spore coat protein of unknown function of Bacillus subtilis; gene amplified from genomic DNA; also called T25–YheD; YheD–T18; source: bacterial two-hybrid fusion, E. coli BTH101; not shown: T18 or T25 domain of adenylate cyclase, N-terminal or C-terminal (by the plasmid combination), kept) MNPKRFLIGIDKTSENTLFLPSSLKQDGLLHAAFGTKVVRCHVAYRRHLEQTVLLSENLFHELLLPHRSRADILIHDHTVHIGPLVGIFTAGFTVSLERPFKDRSLFFSKLVTLHEQAGGYCFVFGAHQINWEEGTIEGLLYRENGWEKKIVPLPNVVYDRLPNRKIEDSLLLQHTKKRLIDEYQIPWFNKTFFNKWNVHQLLEKDPRTAPFLPRSELTPSVELIDELCGAYKKVYIKPANGALGTGIYQLTRTDGGLTVKHTNDAKTFTSIDYSDAASFLAEFQKHHNPSDFLIQQGVDLIEFQGKPADFRVHTNKNRKGKWTVTAIAVKISGKNSITTHLSNGGTVKTLAEVYDDPAERVEVIKKLSAAALTASHVLHDHIEGFIGEIGFDFGIDQNGKVWMFEANSRPGRSIFSHPNLHHVDSLTKRRSFEYASYLSEKAITSPEALWPS	1720	
YhaX, adenylate cyclase T18/T25 hybrid (natural protein, Bacillus subtilis, UniProt O07539 1-288, looked up, YhaX, spore coat protein of unknown function of Bacillus subtilis; gene amplified from genomic DNA; also called T25–YhaX; YhaX–T18; source: bacterial two-hybrid fusion, E. coli BTH101; not shown: T18 or T25 domain of adenylate cyclase, N-terminal or C-terminal (by the plasmid combination), kept) MSKQLLALNIDGALLRSNGKIHQATKDAIEYVKKKGIYVTLVTNRHFRSAQKIAKSLKLDAKLITHSGAYIAEKIDAPFFEKRISDDHTFNIVQVLESYQCNIRLLHEKYSIGNKKKVNSNLLGKALIHPSDPIFYPVQFVESLSDLLMDEPVSAPVIEVYTEHDIQHDITETITKAFPAVDVIRVNDEKLNIVPKGVSKEAGLALVASELGLSMDDVVAIGHQYDDLPMIELAGLGVAMGNAVPEIKRKADWVTRSNDEQGVAYMMKEYFRMQQRKGFLDKFHMKRV	704	
YncD (spore alanine racemase), adenylate cyclase T18/T25 hybrid (natural protein, Bacillus subtilis, UniProt P94494 1-394, looked up, YncD, spore alanine racemase of Bacillus subtilis; gene amplified from genomic DNA of strain PY79; Cloned into pUT18, pUT18C, pKT25 and pKNT25; also called T18-YncD; YncD-T18; source: bacterial two-hybrid fusion, E. coli BTH101; not shown: T18 or T25 domain of adenylate cyclase, N-terminal or C-terminal (by the plasmid combination), kept) MIKLCREVWIEVNLDAVKKNLRAIRRHIPHKSKIMAVVKANGYGHGSIEVARHALEHGASELAVASVEEGIVLRKAGITAPILVLGFTSLSCVKKSAAWNITLSAFQVDWMKEANEILEKEASANRLAIHINVDTGMGRLGVRTKEELLEVVKALKASKFLRWTGIFTHFSTADEPDTTLTKLQHEKFISFLSFLKKQGIELPTVHMCNTAAAIAFPEFSADMIRLGIGLYGLYPSAYIKQLNLVKLEPALSLKARIAYVKTMRTEPRTVSYGATYIAEPNEVIATLPIGYADGYSRALSNRGFVLHRGKRVPVAGRVTMDMIMVSLGENGEGKQGDEVVIYGKQKGAEISVDEVAEMLNTINYEVVSTLSRRIPRFYIRDGEIFKVSTPVLYV	220	beta-galactosidase activity (Miller units) [2]: 600 Mu; beta-galactosidase activity (Miller units) [3]: 160 Mu
SpoVE, adenylate cyclase T18/T25 hybrid (natural protein, Bacillus subtilis, UniProt P07373 1-366, looked up, SpoVE, SEDS family membrane protein essential for cortex synthesis, Bacillus subtilis; gene amplified from genomic DNA; also called SpoVE–T18; T25–SpoVE; source: bacterial two-hybrid fusion, E. coli BTH101; not shown: T18 or T25 domain of adenylate cyclase, N-terminal or C-terminal (by the plasmid combination), kept) MTTKKTSPDLLLVIITLLLLTIGLIMVYSASAVWADYKFDDSFFFAKRQLLFAGIGVIAMFFIMNVDYWTWRTWSKLLMVICFFLLVLVLIPGVGMVRNGSRSWIGVGAFSIQPSEFMKLAMIAFLAKFLSEKQKNITSFRRGFVPALGIVFSAFLIIMCQPDLGTGTVMVGTCIVMIFVAGARIAHFVFLGLIGLSGFVGLVLSAPYRIKRITSYLNPWEDPLGSGFQIIQSLYAVGPGGLFGMGLGQSRQKFFYLPEPQTDFIFAILSEELGFIGGTLILLLFSVLLWRGIRIALGAPDLYGSFVAVGIISMIAIQVMINIGVVTGLIPVTGITLPFLSYGGSSLTLMLMAVGVLLNVSRYSRY	≤ 360	beta-galactosidase activity, fold of the negative control [4]: ~2 fold
SpoVD, adenylate cyclase T18/T25 hybrid (natural protein, Bacillus subtilis, UniProt Q03524 1-646, looked up, gene amplified from genomic DNA; the positive combinations are N-terminal fusions; also called T18–SpoVD; T25–SpoVD; source: bacterial two-hybrid fusion, E. coli BTH101; not shown: T18 or T25 domain of adenylate cyclase, N-terminal, kept) MRVSNVTVRKRLLFVLLFGVIVFLIIDTRLGYVQFVMGEKLTSLAKDSWSRNLPFEPERGEILDRNGVKLATNKSAPTVFVVPRQVQNPMKTSKQLAAVLNMSEEKVYKHVTKKASIEKITPEGRKISNEKAKEIKALDLKGVYVAEDSIRHYPFGSFLSHVLGFAGIDNQGLLGLEAYYDDDLKGEKGSVKFYTDAKGKKMPDEADDYTPPKDGLDMKLTVDSKVQTIMERELDNAEAKYHPDGMIAVAMNPKNGEILGMSSRPDFDPADYQSVDPSVYNRNLPVWSTYEPGSTFKIITLAAALEEQKVNLKRDQFYDKGHAEVDGARLRCWKRGGHGLQTYLEVVQNSCNPGFVELGERLGKEKLFKYIKDFGFGQKTGIDLQGEGTGILFPLERVGPVEQATTAFGQGVSVTPIQQVAAVSAAVNGGTLYTPYIAKEWIDPVTKKTVKKQSPIAKKQVISEETSKQIRYALESVVAEGTGRNAFVEGYRVGGKTGTAQKVKDGKYLENNHIVSFIGFAPADDPSLVVYVAVDNPKGTIQFGGTVAAPIVGNIMRDSLPELGVKPRKNQIEKKYQWNDTKTIEVPNVVGMSVSDLESLLVNLNVDASGKGSKIVKQSPAAGTKVKEGSKIRVYLTEEDEKEAAD	240	beta-galactosidase activity (Miller units) [4]: 420 Mu
B1	360	
